According to the supplement of paper PMC9112550, “Optimization of the antimicrobial peptide Bac7 by deep mutational scanning” (BMC Biology, 2022):

Each sequence was assayed on Escherichia coli TOP10 (assay: shrunken log2 fold change of peptide-encoding DNA abundance (4.5 h post-induction vs induction); higher = less antimicrobial activity (less host growth inhibition)). Conditions: time post-induction: 4.5 h; library: site-saturation at positions 5, 18, 19, 20.
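Also: peptides expressed intracellularly from a pBAD plasmid library in pooled LB shake-flask culture, induced with 0.3% L-arabinose, DNA abundance read by NGS, three biological replicates, DESeq2 with apeglm shrinkage.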

| Sequence | shrunken log2 fold change |
| --- | --- |
| RRIRVRPPRLPRPRPRPRIDPRP | -0.216 |
| RRIRVRPPRLPRPRPRPRIEPRP | 0.314 |
| RRIRVRPPRLPRPRPRPRIIPRP | -0.0581 |
| RRIRVRPPRLPRPRPRPRLDPRP | 0.238 |
| RRIRVRPPRLPRPRPRPRLGPRP | 0.223 |
| RRIRVRPPRLPRPRPRPRLRPRP | 0.311 |
| RRIRVRPPRLPRPRPRPRNNPRP | -0.425 |
| RRIRVRPPRLPRPRPRPRQKPRP | 0.212 |
| RRIRVRPPRLPRPRPRPRQMPRP | 0.117 |
| RRIRVRPPRLPRPRPRPRQSPRP | 0.181 |
| RRIRVRPPRLPRPRPRPRRIPRP | -0.0306 |
| RRIRVRPPRLPRPRPRPRSPPRP | 0.342 |
| RRIRVRPPRLPRPRPRPRTVPRP | 0.16 |
| RRIRVRPPRLPRPRPRPRVPPRP | -0.00723 |
| RRIRVRPPRLPRPRPRPRWGPRP | 0.157 |
| RRIRVRPPRLPRPRPRPRYFPRP | -0.446 |
| RRIRVRPPRLPRPRPRPRYKPRP | -0.131 |
| RRIRVRPPRLPRPRPRPSCEPRP | -0.303 |
| RRIRVRPPRLPRPRPRPSCMPRP | -0.136 |
| RRIRVRPPRLPRPRPRPSDFPRP | -0.394 |
| RRIRVRPPRLPRPRPRPSETPRP | -0.14 |
| RRIRVRPPRLPRPRPRPSEWPRP | -0.0811 |
| RRIRVRPPRLPRPRPRPSFFPRP | -0.2 |
| RRIRVRPPRLPRPRPRPSHEPRP | -0.225 |
| RRIRVRPPRLPRPRPRPSHGPRP | -0.143 |

| Sequence | shrunken log2 fold change |
| --- | --- |
| RRIRVRPPRLPRPRPRPSHNPRP | -0.692 |
| RRIRVRPPRLPRPRPRPSHYPRP | -0.68 |
| RRIRVRPPRLPRPRPRPSIDPRP | -0.455 |
| RRIRVRPPRLPRPRPRPSIEPRP | -0.255 |
| RRIRVRPPRLPRPRPRPSKAPRP | 0.0587 |
| RRIRVRPPRLPRPRPRPSKMPRP | -0.243 |
| RRIRVRPPRLPRPRPRPSKPPRP | -0.242 |
| RRIRVRPPRLPRPRPRPSLNPRP | -0.416 |
| RRIRVRPPRLPRPRPRPSPGPRP | 0.252 |
| RRIRVRPPRLPRPRPRPSRIPRP | 0.0876 |
| RRIRVRPPRLPRPRPRPSTWPRP | -0.184 |
| RRIRVRPPRLPRPRPRPSVRPRP | -0.297 |
| RRIRVRPPRLPRPRPRPSWCPRP | 0.123 |
| RRIRVRPPRLPRPRPRPSWNPRP | -0.371 |
| RRIRVRPPRLPRPRPRPTAKPRP | 0.0848 |
| RRIRVRPPRLPRPRPRPTFFPRP | 0.0435 |
| RRIRVRPPRLPRPRPRPTGDPRP | -0.0504 |
| RRIRVRPPRLPRPRPRPTHLPRP | 0.37 |
| RRIRVRPPRLPRPRPRPTIHPRP | -0.239 |
| RRIRVRPPRLPRPRPRPTIPPRP | -0.0501 |
| RRIRVRPPRLPRPRPRPTKEPRP | -0.0294 |
| RRIRVRPPRLPRPRPRPTLHPRP | 0.195 |
| RRIRVRPPRLPRPRPRPTMHPRP | -0.103 |
| RRIRVRPPRLPRPRPRPTMKPRP | -0.461 |
| RRIRVRPPRLPRPRPRPTNFPRP | -0.287 |

| Sequence | shrunken log2 fold change |
| --- | --- |
| RRIRVRPPRLPRPRPRPTNMPRP | -0.472 |
| RRIRVRPPRLPRPRPRPTPKPRP | 0.297 |
| RRIRVRPPRLPRPRPRPTPNPRP | 0.306 |
| RRIRVRPPRLPRPRPRPTPRPRP | 0.859 |
| RRIRVRPPRLPRPRPRPTQAPRP | 0.55 |
| RRIRVRPPRLPRPRPRPTQTPRP | 0.0438 |
| RRIRVRPPRLPRPRPRPTRIPRP | 0.108 |
| RRIRVRPPRLPRPRPRPTTAPRP | 0.181 |
| RRIRVRPPRLPRPRPRPTTFPRP | -0.118 |
| RRIRVRPPRLPRPRPRPTTNPRP | 0.0416 |
| RRIRVRPPRLPRPRPRPVAPPRP | 0.242 |
| RRIRVRPPRLPRPRPRPVARPRP | 0.223 |
| RRIRVRPPRLPRPRPRPVDKPRP | -0.278 |
| RRIRVRPPRLPRPRPRPVECPRP | -0.286 |
| RRIRVRPPRLPRPRPRPVEYPRP | -1.63 |
| RRIRVRPPRLPRPRPRPVFAPRP | 0.217 |
| RRIRVRPPRLPRPRPRPVGRPRP | 0.542 |
| RRIRVRPPRLPRPRPRPVHAPRP | -0.189 |
| RRIRVRPPRLPRPRPRPVHNPRP | -0.404 |
| RRIRVRPPRLPRPRPRPVHVPRP | -0.0459 |
| RRIRVRPPRLPRPRPRPVHYPRP | -0.0353 |
| RRIRVRPPRLPRPRPRPVIKPRP | -0.138 |
| RRIRVRPPRLPRPRPRPVKDPRP | 0.0828 |
| RRIRVRPPRLPRPRPRPVKQPRP | -0.0475 |
| RRIRVRPPRLPRPRPRPVKRPRP | 0.0275 |
